Measurements from patent publication US20240190962A1 (IMMUNOWAKE, published 2024).
Changes are numbered by the printed parent chain. Numbers in names are those of the source. Like-named read-outs stand apart in the source and are kept apart here.

T1: human IL-2 receptor (IL-2Rα, IL-2Rβ, IL-2Rγ) (human, UniProt P01589 22-272; P14784 27-551; P31785 23-369)
T1 sequence (looked up) 1: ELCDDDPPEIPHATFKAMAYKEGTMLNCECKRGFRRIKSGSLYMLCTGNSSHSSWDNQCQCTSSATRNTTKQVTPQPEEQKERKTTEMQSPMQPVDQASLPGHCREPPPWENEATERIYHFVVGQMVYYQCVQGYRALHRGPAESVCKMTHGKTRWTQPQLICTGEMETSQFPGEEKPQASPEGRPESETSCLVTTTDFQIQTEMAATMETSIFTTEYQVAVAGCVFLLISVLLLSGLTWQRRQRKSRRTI
T1 sequence (looked up) 2: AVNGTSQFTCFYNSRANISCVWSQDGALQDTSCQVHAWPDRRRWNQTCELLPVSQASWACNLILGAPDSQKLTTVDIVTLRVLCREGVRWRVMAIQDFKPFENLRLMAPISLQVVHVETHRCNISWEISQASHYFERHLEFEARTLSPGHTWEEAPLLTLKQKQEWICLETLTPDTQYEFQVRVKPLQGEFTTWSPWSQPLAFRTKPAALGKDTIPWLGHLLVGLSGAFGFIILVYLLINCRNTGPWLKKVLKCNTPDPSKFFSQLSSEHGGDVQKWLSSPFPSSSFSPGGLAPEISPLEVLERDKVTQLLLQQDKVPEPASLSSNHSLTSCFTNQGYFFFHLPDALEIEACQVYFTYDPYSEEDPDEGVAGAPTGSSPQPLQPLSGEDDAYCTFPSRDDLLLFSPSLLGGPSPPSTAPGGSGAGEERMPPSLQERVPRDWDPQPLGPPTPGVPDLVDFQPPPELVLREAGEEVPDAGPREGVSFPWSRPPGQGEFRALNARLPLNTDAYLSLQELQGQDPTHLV
T1 sequence (looked up) 3: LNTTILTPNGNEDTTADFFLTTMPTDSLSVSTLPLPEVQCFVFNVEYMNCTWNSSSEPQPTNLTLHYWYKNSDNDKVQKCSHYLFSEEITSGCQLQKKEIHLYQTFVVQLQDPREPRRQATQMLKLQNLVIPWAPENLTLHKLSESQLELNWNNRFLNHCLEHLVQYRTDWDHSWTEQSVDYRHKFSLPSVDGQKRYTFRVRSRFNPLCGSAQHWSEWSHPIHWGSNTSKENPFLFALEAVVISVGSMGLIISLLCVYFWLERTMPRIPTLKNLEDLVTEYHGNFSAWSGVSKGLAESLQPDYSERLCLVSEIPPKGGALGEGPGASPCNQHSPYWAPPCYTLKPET

B1: IL-2 mutant-Fc-CD3 Ab (other, not shown: a dimerising Fc or GST)
light: EIVMTQSPGTLSLSPGESATLSCSASLSVSFMHWFQQKPGHAPRLLIYRTSNLASGVPDRFSGSGSGTDFTLTISRLEPEDFAVYYCQQRSSDPPTFGQGTRLEIKRTVAAPSVFIFPPSDEQLKSGTASVVCLLNNFYPREAKVQWKVDNALQSGNSQESVTEQDSKDSTYSLSSTLTLSKADYEKHKVYACEVTHQGLSSPVTKSFNRGEC
heavy: EVQLVESGGGLVQPGRSLRLSCTASGFTFSYFWMNWVRQAPGKGLEWVGEIRLRSDNYATHYAESVKGRFTISRDDSKSIAYLQMNSLKTEDTALYYCTRDWEFTYWGQGTTVTVSSAS
chain: APTSSSTKKTQLQLEHLLLDLQMILNGINNYKNPKLTDMLTFEFYMPKKATELKHLQCLERELKPLEEVLNLAQSKNFHLRPRDLISNINVIVLELKGSETTFMCEYADETATIVEFLNRWITFCQSIISTLT
B2: Fab-IL-2 mutant-Fc-CD3 Ab (other)
light: B1 light
heavy 1: EVQLVESGGGLVQPGRSLRLSCTASGFTFSYFWMNWVRQAPGKGLEWVGEIRLRSDNYATHYAESVKGRFTISRDDSKSIAYLQMNSLKTEDTALYYCTRDWEFTYWGQGTTVTVSSASTKGPSVFPLAPSSKSTSGGTAALGCLVKDYFPEPVTVSWNSGALTSGVHTFPAVLQSSGLYSLSSVVTVPSSSLGTQTYICNVNHKPSNTKVDKKVEPKSCDKTHTCPPCPAPEKKGGPSVFLFPPKPKDTLMISRTPEVTCVVVDVSHEDPEVKFNWYVDGVEVHNAKTKPREEQYNSTYRVVSVLTVLHQDWLNGKEYKCKVSNKALPAPIEKTISKAKGQPREPQVYVLPPSREEMTKNQVSLLCLVKGFYPSDIAVEWESNGQPENRYMTWPPVLDSDGSFFLYSKLTVDKSRWQQGNVFSCSVMHEALHNHYTQKSLSLSPGK
heavy 2: EVQLVESGGGLVQPGRSLRLSCTASGFTFSYFWMNWVRQAPGKGLEWVGEIRLRSDNYATHYAESVKGRFTISRDDSKSIAYLQMNSLKTEDTALYYCTRDWEFTYWGQGTTVTVSSASTKGPSVFPLAPSSKSTSGGTAALGCLVKDYFPEPVTVSWNSGALTSGVHTFPAVLQSSGLYSLSSVVTVPSSSLGTQTYICNVNHKPSNTKVDKKVEPKSCDKPAPTSSSTKKTQLQLEHLLLDLQMILNGINNYKNPKLTDMLTFEFYMPKKATELKHLQCLERELKPLEEVLNLAQSKNFHLRPRDLISNINVIVLELKGSETTFMCEYADETATIVEFLNRWITFCQSIISTLTDKTHTCPPCPAPEDEGGPSVFLFPPKPKDTLMISRTPEVTCVVVDVSHEDPEVKFNWYVDGVEVHNAKTKPREEQYNSTYRVVSVLTVLHQDWLNGKEYKCKVSNKALPAPIEKTISKAKGQPREPQVYVYPPSREEMTKNQVSLTCLVKGFYPSDIAVEWESNGQPENNYKTTPPVLDEDGSFALVSKLTVDKSRWQQGNVFSCSVMHEALHNHYTQKSLSLSPGK
B3: Fab-IL-23(WT)-Fc-CD4 Ab (other)
light: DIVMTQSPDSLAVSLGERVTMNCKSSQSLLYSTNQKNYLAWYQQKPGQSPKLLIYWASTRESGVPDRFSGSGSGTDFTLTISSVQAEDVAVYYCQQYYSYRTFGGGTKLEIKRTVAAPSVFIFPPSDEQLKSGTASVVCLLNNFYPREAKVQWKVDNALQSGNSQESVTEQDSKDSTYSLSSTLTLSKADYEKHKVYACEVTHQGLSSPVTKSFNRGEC
heavy 1: QVQLQQSGPEVVKPGASVKMSCKASGYTFTSYVIHWVRQKPGQGLDWIGYINPYNDGTDYDEKFKGKATLTSDTSTSTAYMELSSLRSEDTAVYYCAREKDNYATGAWFAYWGQGTLVTVSSASTKGPSVFPLAPSSKSTSGGTAALGCLVKDYFPEPVTVSWNSGALTSGVHTFPAVLQSSGLYSLSSVVTVPSSSLGTQTYICNVNHKPSNTKVDKKVEPKSCDKTHTCPPCPAPEKKGGPSVFLFPPKPKDTLMISRTPEVTCVVVDVSHEDPEVKFNWYVDGVEVHNAKTKPREEQYNSTYRVVSVLTVLHQDWLNGKEYKCKVSNKALPAPIEKTISKAKGQPREPQVYVLPPSREEMTKNQVSLLCLVKGFYPSDIAVEWESNGQPENRYMTWPPVLDSDGSFFLYSKLTVDKSRWQQGNVFSCSVMHEALHNHYTQKSLSLSPGK
heavy 2: QVQLQQSGPEVVKPGASVKMSCKASGYTFTSYVIHWVRQKPGQGLDWIGYINPYNDGTDYDEKFKGKATLTSDTSTSTAYMELSSLRSEDTAVYYCAREKDNYATGAWFAYWGQGTLVTVSSASTKGPSVFPLAPSSKSTSGGTAALGCLVKDYFPEPVTVSWNSGALTSGVHTFPAVLQSSGLYSLSSVVTVPSSSLGTQTYICNVNHKPSNTKVDKKVEPKSCDKPGSGIWELKKDVYVVELDWYPDAPGEMVVLTCDTPEEDGITWTLDQSSEVLGSGKTLTIQVKEFGDAGQYTCHKGGEVLSHSLLLLHKKEDGIWSTDILKDQKEPKNKTFLRCEAKNYSGRFTCWWLTTISTDLTFSVKSSRGSSDPQGVTCGAATLSAERVRGDNKEYEYSVECQEDSACPAAEESLPIEVMVDAVHKLKYENYTSSFFIRDIIKPDPPKNLQLKPLKNSRQVEVSWEYPDTWSTPHSYFSLTFCVQVQGKSKREKKDRVFTDKTSATVICRKNASISVRAQDRYYSSSWSEWASVPCSGGGGSGGGGSGGGGSGGGGSGRAVPGGSSPAWTQCQQLSQKLCTLAWSAHPLVGHMDLREEGDEETTNDVPHIQCGDGCDPQGLRDNSQFCLQRIHQGLIFYEKLLGSDIFTGEPSLLPDSPVGQLHASLLGLSQLLQPEGHHWETQQIPSLSPSQPWQRLLLRFKILRSLQAFVAVAARVFAHGAATLSPDKTHTCPPCPAPEDEGGPSVFLFPPKPKDTLMISRTPEVTCVVVDVSHEDPEVKFNWYVDGVEVHNAKTKPREEQYNSTYRVVSVLTVLHQDWLNGKEYKCKVSNKALPAPIEKTISKAKGQPREPQVYVYPPSREEMTKNQVSLTCLVKGFYPSDIAVEWESNGQPENNYKTTPPVLDEDGSFALVSKLTVDKSRWQQGNVFSCSVMHEALHNHYTQKSLSLSPGK
notes: copies: 2 + 1 + 1
B4: Fab-IL-23(E59A)-Fc-CD4 Ab (other)
light: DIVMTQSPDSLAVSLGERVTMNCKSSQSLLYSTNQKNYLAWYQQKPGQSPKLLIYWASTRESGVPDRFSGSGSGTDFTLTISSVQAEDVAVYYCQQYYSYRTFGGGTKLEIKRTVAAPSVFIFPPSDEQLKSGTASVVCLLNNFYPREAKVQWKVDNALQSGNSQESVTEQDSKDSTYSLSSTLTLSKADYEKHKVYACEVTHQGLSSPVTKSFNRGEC
heavy 1: B3 heavy 1
heavy 2: B3 heavy 2 with E290A
notes: copies: 2 + 1 + 1
B5: Fab-IL-23(E59A/F60A)-Fc-CD4 Ab (other)
light: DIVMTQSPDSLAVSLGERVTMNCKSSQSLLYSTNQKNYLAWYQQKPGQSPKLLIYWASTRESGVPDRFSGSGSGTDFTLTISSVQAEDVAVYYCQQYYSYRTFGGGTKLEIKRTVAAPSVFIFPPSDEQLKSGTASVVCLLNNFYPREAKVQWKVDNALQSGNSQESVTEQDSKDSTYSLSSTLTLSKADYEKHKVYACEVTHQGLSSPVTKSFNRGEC
heavy 1: B3 heavy 1
heavy 2: B3 heavy 2 with E290A, F291A
B6: Fab-IL-23(F60A)-Fc-CD4 Ab (other)
light: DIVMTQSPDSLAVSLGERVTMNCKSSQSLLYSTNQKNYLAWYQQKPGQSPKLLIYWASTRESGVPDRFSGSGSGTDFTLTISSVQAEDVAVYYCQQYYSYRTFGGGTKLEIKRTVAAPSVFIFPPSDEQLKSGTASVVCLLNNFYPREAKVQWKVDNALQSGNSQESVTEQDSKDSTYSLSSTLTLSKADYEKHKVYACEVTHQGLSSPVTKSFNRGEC
heavy 1: B3 heavy 1
heavy 2: B3 heavy 2 with F291A
notes: copies: 2 + 1 + 1
B7: anti-PD-1 antibody nivolumab (Opdivo) (antibody, human IgG4 S228P, kappa, V domains shown)
VH: QVQLVESGGGVVQPGRSLRLDCKASGITFSNSGMHWVRQAPGKGLEWVAVIWYDGSKRYYADSVKGRFTISRDNSKNTLFLQMNSLRAEDTAVYYCATNDDYWGQGTLVTVSS
VL: EIVLTQSPATLSLSPGERATLSCRASQSVSSYLAWYQQKPGQAPRLLIYDASNRATGIPARFSGSGSGTDFTLTISSLEPEDFAVYYCQQSSNWPRTFGQGTKVEIKR
B8: anti-CD3 antibody (made in-house) (antibody, V domains shown)
VH: EVQLVESGGGLVQPGRSLRLSCTASGFTFSYFWMNWVRQAPGKGLEWVGEIRLRSDNYATHYAESVKGRFTISRDDSKSIAYLQMNSLKTEDTALYYCTRDWEFTYWGQGTTVTVSS
VL: EIVMTQSPGTLSLSPGESATLSCSASLSVSFMHWFQQKPGHAPRLLIYRTSNLASGVPDRFSGSGSGTDFTLTISRLEPEDFAVYYCQQRSSDPPTFGQGTRLEIKR

Tests used:
[1] = target: T1, human IL-2 receptor (IL-2Rα, IL-2Rβ, …); test: cell-based or functional assay
CD8 on CD8+ T cells = target: T2, CD8 on CD8+ T cells (UniProt P01732 22-235); test: FACS
T2 construct: whole, on cells
T2 sequence (P01732 22-235): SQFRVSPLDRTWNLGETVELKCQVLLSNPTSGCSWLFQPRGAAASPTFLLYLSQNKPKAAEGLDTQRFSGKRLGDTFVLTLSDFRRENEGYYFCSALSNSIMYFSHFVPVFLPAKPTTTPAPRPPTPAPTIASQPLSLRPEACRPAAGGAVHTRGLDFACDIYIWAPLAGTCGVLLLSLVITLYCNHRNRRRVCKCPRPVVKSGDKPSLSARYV

[2] = target: IL-23 receptor complex (IL-12Rβ1, IL-23R) (UniProt P42701 24-662; Q5VWK5 24-629, limits assumed); test: cell-based or functional assay
Chain of IL-23 receptor complex (IL-12Rβ1, IL-23R) (Q5VWK5 24-629 limits assumed, chain 2 of 2, other chains not shown): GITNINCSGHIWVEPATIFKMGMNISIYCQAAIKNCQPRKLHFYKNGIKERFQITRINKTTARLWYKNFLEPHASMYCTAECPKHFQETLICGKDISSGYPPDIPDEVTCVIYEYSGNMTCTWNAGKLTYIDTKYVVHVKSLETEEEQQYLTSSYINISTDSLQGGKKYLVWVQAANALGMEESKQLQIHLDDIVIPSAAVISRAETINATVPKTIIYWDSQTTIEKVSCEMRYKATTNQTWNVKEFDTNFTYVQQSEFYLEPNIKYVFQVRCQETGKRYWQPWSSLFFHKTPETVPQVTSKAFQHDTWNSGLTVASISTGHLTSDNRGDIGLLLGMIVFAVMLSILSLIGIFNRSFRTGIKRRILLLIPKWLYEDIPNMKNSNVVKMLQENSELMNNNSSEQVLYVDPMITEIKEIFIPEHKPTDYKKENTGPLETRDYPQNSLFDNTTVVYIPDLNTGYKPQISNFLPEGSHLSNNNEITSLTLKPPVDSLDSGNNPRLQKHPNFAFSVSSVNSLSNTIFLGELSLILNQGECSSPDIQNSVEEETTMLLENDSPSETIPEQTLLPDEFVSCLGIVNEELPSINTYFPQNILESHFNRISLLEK

[3] = target: T1, human IL-2 receptor (IL-2Rα, IL-2Rβ, …); test: cell-based or functional assay; remark: listed apart in the source

Binder	Percent IL-2 signal transduction (HEK-IL-2 reporter assay) [1] [%]	Percent T-cell proliferation (PBMC proliferation assay) [1] [%]	binding result (CD8 on CD8+ T cells)	IL-23 biological activity (IFN-γ release), CD4+ T cells [2] [%]	IL-23 biological activity (IFN-γ release), CD8+ T cells [2] [%]	Percent IL-2 signal transduction (HEK-IL-2 reporter assay) [3] [%]	Percent IL-2 signal transduction (HEK-PD-1-IL-2 reporter assay) [3] [%]
B1	11	39	–	–	–	–	–
B2	2.5	45	–	–	–	–	–
B3	–	–	no binding	34	21	–	–
B4	–	–	no binding	24	2	–	–
B5	–	–	no binding	6.8	0	–	–
B6	–	–	no binding	29	1.5	–	–
B7	–	–	–	–	–	0	0
B8	0	0	–	–	–	–	–
